From US20250152663A1, “COMPOSITION FOR PREVENTION OR TREATMENT OF DRY EYE DISEASE COMPRISING HAPLN1” (HAPLNSCIENCE INC., priority 2021, published 2025)
Entries after “also recorded” stand apart in the source; their conditions may differ.

Assays:
[1] = test system: human corneal epithelial cells; assay: CCK-8 cell viability under high osmotic pressure (dry eye cell model); assay type: cell-based; details: HCEC, 450 mOsM
Experimental: In most dry eye diseases, tear decreases in the aqueous layer in an eyeball due to lacrimal hyposecretion or hyperevaporation of tear. In this case, osmotic pressure increases because water decreases while concentrations of proteins, lipids, carbohydrates, etc. contained in tear are constantly maintained. Based on this principle, in cellular level studies, NaCl is added to a cell culture medium to control the osmotic pressure, establish a dry eye disease model, and evaluate efficacy of a drug. Thus, in the present embodiment, by using a case with an osmotic pressure of 314 mOsM as a normal control and a case with a relatively high osmotic pressure of 450 mOsM as a dry eye disease model, effects of HAPLN1 protein on the relief of dry eye disease in human corneal epithelial cells under the high osmotic pressure conditions were verified. This is related to cell viability of human corneal epithelial cells.
In this experiments, a cell counting kit-8 (CCK-8), which allows a sensitive colorimetric assay used to measure cell viability and cytotoxicity, was used. That is, addition of WST-8, which is a highly water-soluble tetrazolium salt, to cells […] to produce an orange-colored formazan dye in the cells. Because the amount of the dye is related to the number of viable cells, a larger amount of the dye indicates more viable cells. […]

mouse dry eye model = assay: Corneal fluorescein score, low-humidity+scopolamine-induced dry eye disease model; assay type: in vivo, C57BL/6
Experimental: Corneal fluorescein score assay and tear volume assay were respectively performed on eyeballs of mice treated with the compositions of Preparation Examples 1, 2, and 3 prepared in Example 7 above by using a low-humidity+scopolamine-induced dry eye disease (DED) model.
When obtaining experimental animals, inspection and quarantines were carried out by referring the microbiological monitoring report of a test system provided by the supplier and observing the appearance of the experimental animals. Animals with no apparent abnormalities were brought into a vivarium and acclimated for 2 weeks in an animal room where tests were conducted. During the quarantine and acclimation period of 2 weeks, health condition and suitability for the experiment were evaluated, and then healthy animals were selected. By using only the animals with no abnormalities during the quarantine and acclimation period, dry eye disease was induced and the degree of corneal damage was evaluated by corneal fluorescein staining, and the test groups were classified by a Z-array method according to clinical scores. A dry eye disease test group consisted of eyeballs with a corneal fluorescein stain score of 7 to 15, and a sham group (normal) consisted of eyeballs not having a corneal fluorescein stains core of 5 or more. […]

corneal epithelial cells = assay: Detachment of corneal epithelial cells (H & E staining), mouse dry eye model; assay type: in vivo, C57BL/6; details: after 16 days of drug treatment, regardless of concentration
Experimental: On the 2nd day after 16 days of drug treatment, eyes were enucleated and paraffin blocked, and tissue was stained by hematoxylin and eosin (H & E) staining on a prepared slide (FIG. 9A). The number of detached corneal epithelial cells was measured and quantified (FIG. 9B).

[2] = test system: goblet cells present in the conjunctiva; assay: Goblet cells in conjunctiva (PAS staining), mouse dry eye model; assay type: in vivo, C57BL/6; details: 16th day
Description: On the 16th days from drug treatment, eyes were enucleated and paraffin blocked, and tissue was stained by PAS staining on a prepared slide (FIG. 10A). PAS staining specifically stains goblet cells. Because there are many mucopolysaccharides and mucoproteins in the goblet cells, […] thereof is oxidized by a periodic acid to form an aldehyde, which reacts with a Schiff reagent to be stained in red-purple.
In this regard, the number of goblet cells present in the conjunctiva was measured and quantified (FIG. 10B). As a result, in the dry eye disease model, the number of damaged goblet cells decreased.

B1: hyaluronan and proteoglycan link protein 1 (HAPLN1) (protein, listed as Homo sapiens)
chain: MKSLLLLVLISICWADHLSDNYTLDHDRAIHIQAENGPHLLVEAEQAKVFSHRGGNVTLPCKFYRDPTAFGSGIHKIRIKWTKLTSDYLKEVDVFVSMGYHKKTYGGYQGRVFLKGGSDSDASLVITDLTLEDYGRYKCEVIEGLEDDTVVVALDLQGVVFPYFPRLGRYNLNFHEAQQACLDQDAVIASFDQLYDAWRGGLDWCNAGWLSDGSVQYPITKPREPCGGQNTVPGVRNYGFWDKDKSRYDVFCFTSNFNGRFYYLIHPTKLTYDEAVQACLNDGAQIAKVGQIFAAWKILGYDRCDAGWLADGSVRYPISRPRRRCSPTEAAVRFVGFPDKKHKLYGVYCFRAYN
[1]; 5 to 100 ng/ml, incubated 24 hours or 48 hours, compared with normal cell group (314 mOsM)
  cell viability, CCK-8 absorbances (450 nm): not less than or similar to that of a normal cell group; also recorded: increased
[1]; regardless of concentration, vs 0.1 to 0.5 μM Cyclosporin A
  cell viability (CCK-8) compared with control drug Cyclosporin A: higher than 0.1 to 0.5 μM of Cyclosporin A
Mouse dry eye model; after 11 days
  CFS level compared with Cyclosporine A: reduced the CFS level more than Cyclosporine A
Mouse dry eye model; eye drop 0.5, 5, 50 μg/ml, 5 μL b.i.d., regardless of the concentration
  CFS level: consistently decreased
Corneal epithelial cells
  number of damaged (detached) corneal epithelial cells: decreased
[2]
  number of goblet cells compared with normal Sham control: equivalent to that of the normal Sham control
[2]; regardless of the concentration
  number of goblet cells compared to the dry eye model: significantly increased
